Results published in patent publication US12144869B2, “Anti-ROR1 antibody conjugates, compositions comprising anti ROR1 antibody conjugates, and methods of making and using anti-ROR1 antibody conjugates” (Sutro Biopharma, Inc., priority 2022, dated 2024).
Where a chain is given by its changes, count along the chain named.

B1: SRP2196-A01 (antibody, V domains shown)
VH: EVQLVESGGGLVQPGGSLRLSCAASGFNITGYYIHWVRQAPGKGLEWVGQISPNSGYTYYADSVKGRFTISADTSKNTAYLQMNSLRAEDTAVYYCARDSRRYVRGWDYWGQGTLVTVSS
VL: QAVVTQESALTTSPGETVTLTCRSSTGAVTTSNYANWVQEKPDHLFTGLIGGTNKRAPGVPARFSGSLIGDKAALTITGAQTEDEAIYFCALWYSNLWVFGGGTKLTVL
B2: SRP2196-B06 (antibody, V domains shown)
VH: B1 VH with Y57S, Y60S, R105L, G106S
VL: B1 VL
B3: SRP2196-B04 (antibody, V domains shown)
VH: B1 VH with G31E, Q50Y, Y57A, Y60Q
VL: B1 VL
B4: SRP2196-A02 (antibody, V domains shown)
VH: B1 VH with Y57A, Y59H, Y60D
VL: B1 VL
B5: SRP2196-A10 (antibody, V domains shown)
VH: B1 VH with Q50Y, Y57A, Y59H, T74I, Y94H, G106S
VL: B1 VL
B6: SRP2196-A11 (antibody, V domains shown)
VH: B1 VH with Y57T, Y60D
VL: B1 VL
B7: SRP2196-A06 (antibody, V domains shown)
VH: B1 VH with Y57S, Y59H, Y60Q, E89G
VL: B1 VL
B8: SRP2196-B10 (antibody, V domains shown)
VH: B1 VH with Q50S, S52T, N54L, Y57A, Y59S, Y60K, V104I, G106S
VL: B1 VL
B9: SRP2196-A08 (antibody, V domains shown)
VH: B1 VH with Q50Y, Y57S, Y60K, K76R, G106S
VL: B1 VL
B10: SRP2196-B08 (antibody, V domains shown)
VH: B1 VH with Y60L
VL: B1 VL
B11: SRP2196-C01 (antibody, V domains shown)
VH: B1 VH with T30I, Q50S, S52T, N54L, Y57A, Y59S, Y60K, V104I, G106S
VL: B1 VL
B12: SRP2196-A05 (antibody, V domains shown)
VH: B1 VH with G31N, Q50Y, Y57A, Y60Q, G106S
VL: B1 VL
B13: SRP2196-B05 (antibody, V domains shown)
VH: B1 VH with Y57A, Y60H
VL: B1 VL
B14: SRP2196-B02 (antibody, V domains shown)
VH: B1 VH with G31Q, Q50Y, Y57Q, Y60D, G106S
VL: B1 VL
B15: 1944-A07 HC w/hUCHT1 LC3: HC of lead antibody 1944-A07 co-expressed with the LC of anti-CD3 antibody "hUCHT1-LC3" (antibody, V domains shown)
VH: B1 VH with Q50Y, Y57S, G106P, W107F
VL: DIQMTQSPSTLSASVGDRVTITCRASQDIRNYLNWYQQKPGKAPKLLIYYTSRLHSGVPSRFSGSGSGTEYTLTISSLQPDDFATYYCQQGNTLPWTFGGGTKVEIK
B16: 1944-A07 HC w/hOKT3 LC1: HC of lead antibody 1944-A07 co-expressed with the LC of anti-CD3 antibody "hOKT3-LC1" (antibody, V domains shown)
VH: B1 VH with Q50Y, Y57S, G106P, W107F
VL: DIQMTQSPSSLSASVGDRVTITCSASSSVSYMNWYQQKPGKAPKRLIYDTSKLASGVPSRFSGSGSGTEYTLTISSLQPEDFATYYCQQWSSNPFTFGQGTKLEIK
B17: 1944-A07 HC w/hSP34 LC3: HC of lead antibody 1944-A07 co-expressed with the LC of anti-CD3 antibody "hSP34-LC3" (antibody, V domains shown)
VH: B1 VH with Q50Y, Y57S, G106P, W107F
VL: QTVVTQEPSLTVSPGGTVTLTCGSSTGAVTSGYYPNWFQQKPGQAPRGLIGGTKFLAPGTPARFSGSLLGGKAALTLSGVQPEDEAEYYCALWYSNRWVFGGGTQLTVTG
B18: SRP2196-A04 (antibody, V domains shown)
VH: EVQLVESGGGLVQPGGSLRLSCAASGFNISPYYIHWVRQAPGKGLEWVGQIYPISGHTYQADSVKGRFTISADTSKNTAYLQMNSLRAEDTAVYYCARESRRYVGPFGYWGQGTLVTVSS
VL: B1 VL
B19: SRP1944-A07 w SP34 LC3: "initial antibody leads constructed with an SP34 light chain" (antibody, V domains shown)
VH: B1 VH with Q50Y, Y57S, G106P, W107F
VL: B17 VL

Test system: not listed separately
Test: Differential scanning fluorimetry (protein thermal shift; TM1/TM2)
Type: physicochemical
Settings: Table 11; melting temperature of the Fab domain
Protocol: A protein thermal shift assay was carried out by mixing the protein to be assayed with an environmentally sensitive dye (SYPRO Orange, Life Technologies Cat #S-6650) in a phosphate buffered solution (PBS), and monitoring the fluorescence of the mixture in real time as it underwent controlled thermal denaturation. Protein solutions between 0.2-2 mg/mL were mixed at a 1-1 volumetric ratio with a 1-500 PBS-diluted solution of SYPRO Orange (SYPRO Orange stock dye is 5000× in DMSO). 10 μL aliquots of the protein-dye mixture were dispensed in quadruplicate in a 384-well microplate (Bio-Rad Cat #MSP-3852), and the plate was sealed with an optically clear sealing film (Bio-Rad Cat #MSB-1001) and placed in a 384-well plate real-time thermocycler (Bio-Rad CFX384 Real Time System). The protein-dye mixture was heated from […], at increments of 0.1° C. per cycle (˜1.5° C. per minute), allowing 3 seconds of equilibration at each temperature before taking a fluorescence measurement. At the end of the experiment, the transition melting temperatures (TM1 and TM2) were determined using the Bio-Rad CFX manager software. TM1 represents the melting temperature of the Fc domain. TM2 represents the melting temperature of the Fab domain.
For the thermal stability of an antibody, the first melting peak (Tm1) coincides with the unfolding of the CH2 domain (FC stability), while the second melting peak (Tm2) occurs upon unfolding of the Fab domain.

Molecule | TM2 (° C.) [°C]
B1 | 74
B2 | 70
B3 | 72
B4 | 71
B5 | 68
B6 | 73
B7 | 70
B8 | 70
B9 | 69
B10 | 75
B11 | 70
B12 | 71
B13 | 73
B14 | 69

Molecular target: T1, human ROR1-Fz (Homo sapiens, UniProt Q01973)
T1 construct: Frizzled (Fz, residues 165-305); His6 (C); purchased Acro Biosystems; host or cells: HEK293
Test: Biacore off-rate and kinetic analysis, ROR1-Fz
Type: binding
Settings: Table 7; sample ROR1 Fz; 1944-A07 HC with different LCs
Protocol: Anti-Fc polyclonal antibodies were immobilized onto a CMS chip (GE Life Sciences) using amine coupling chemistry (from Amine Coupling Kit, GE Life Sciences). The immobilization steps were carried out at a flow rate of 25 μL/min in 1×HBS-EP+buffer (GE Life Sciences; 10× Stock diluted before use). The sensor surfaces were activated for 7 min with a mixture of NHS (0.05 M) and EDC (0.2 M). The Anti-Fc antibodies were injected over all 4 flow cells at a concentration of 25 ug/ml in 10 mM sodium acetate, pH 4.5, for 7 min. Ethanolamine (1 M, pH 8.5) was injected for 7 min to block any remaining activated groups. An average of 12,000 response units (RU) of capture antibody was immobilized on each flow cell.
Off-rate and kinetic binding experiments were performed at 25° C. using 1×HBS-EP+buffer. Test and control antibodies were injected over the anti-Fc surface at concentrations of 5-10 μg/mL for 12 seconds at a flow rate of 10 μL/min on flow cells 2, 3 and 4, followed by a buffer wash for 30 seconds at the same flow rate. Kinetic characterization of antibody samples was carried out with a range of antigen concentrations from 1-100 nM and 1 injection of 0 nM antigen (for example, 100, 50, 25, 6.25, 1.56 and 0 nM). After capturing ligand (antibody) on the anti-Fc surface, the analyte (hROR1, Fz or Kr domains, Acro Biosystems, Delaware) was bound for 180 seconds, followed by a 600 second dissociation phase at a flow rate of 50 μL/min. Between each ligand capture and analyte binding cycle, regeneration was carried out using 2 injections of 10 mM Glycine pH 2.0 for 30 seconds at 30 μL/min, followed by a 30 second buffer wash step.
The data was fit with the Biacore T200 Evaluation software, using a 1-1 Langmuir binding model. KD (affinity, nM) was determined as a ratio of the kinetic rate constants calculated from the fits of the association and dissociation phases.
For anti-CD3-LC-containing IgGs that had detectable ROR1-binding in ELISA (1944-A07 and 1987-C05 variants), those antibodies were further tested for binding by surface plasmon resonance (SPR). Binding kinetics were assessed to the ROR1-frizzled domain (hROR1-Fz) or the ROR1-extracellular domain (hROR1) for 1944-A07 and 1987-C05 variants, respectively. Briefly, anti-ROR1 antibodies were captured via anti-human Fc polyclonal antibodies immobilized to a CM5 chip, and ROR1 recombinant proteins were flowed across the surface to assess binding kinetics. hROR1 or hROR1-Fz domain (Acro Biosystems, Delaware) binding was tested at 100, 50, 25, 6.25, 1.5625 nM. The data was fit with the Biacore™ T200 Evaluation software, using a 1-1 Langmuir binding model. KD (affinity, nM) was determined as a ratio of the kinetic rate constants calculated from the fits of the association and dissociation phases.

T1 sequence (Q01973 165-305): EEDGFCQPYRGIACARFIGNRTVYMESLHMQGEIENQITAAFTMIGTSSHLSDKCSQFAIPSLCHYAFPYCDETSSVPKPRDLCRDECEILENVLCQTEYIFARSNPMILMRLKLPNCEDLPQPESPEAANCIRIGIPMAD

Molecule | ka1 [M⁻¹ s⁻¹] | kd1 [s⁻¹] | KD
B15 | 1.85e+06 | 0.119 | 
B16 |  |  | Not detected
B17 | 360000 | 0.00228 | 

Same assay, conditions: Table 11; SP34 light chain

Molecule | Biacore human ROR1-Fz ka [M⁻¹ s⁻¹] | Biacore human ROR1-Fz kd [s⁻¹]
B18 | 139000 | 0.000343
B2 | 142000 | 0.000423
B3 | 127000 | 0.000352
B5 | 172000 | 0.000479
B6 | 191000 | 0.000792
B7 | 180000 | 0.00069
B8 | 128000 | 0.000334
B9 | 183000 | 0.00078
B19 | 597000 | 0.0085
B10 | 156000 | 0.000488
B11 | 125000 | 0.000457
B12 | 175000 | 0.000682
B14 | 163000 | 0.000227

Same assay, conditions: hROR1-Fz; 1944-A07 variants

Molecule | KD (SPR binding kinetics)
B15 | binding was not detected
